In patent US12649783B2, “Anti-MCT1 antibodies and uses thereof” (IMMUNEXT INC., priority 2018, dated 2026):

Legend:
Tr1 cells = assay: ex vivo Tr1 survival; assay type: cell-based, human
Protocol: Humanized NSG mice (treated with anti-MCT1) were sacrificed on d32 or other day specified, single cells suspensions were prepared from spleens, followed by bead-based enrichment of hCD3+ cells. Isolated cells were plated with the analytes (see above table) to access Tr1 survival: […]

MCT1 = target: T1, MCT1 (Homo sapiens, UniProt P53985); assay: bromopyruvate toxicity assay (ATPlite); assay type: cell-based
T1 construct: HEK-293 WT cells only express MCT1/CD147 and no other MCTs as measured by RT-PCR; endogenous in cells; host or cells: HEK293T
T1 sequence (P53985 1-500): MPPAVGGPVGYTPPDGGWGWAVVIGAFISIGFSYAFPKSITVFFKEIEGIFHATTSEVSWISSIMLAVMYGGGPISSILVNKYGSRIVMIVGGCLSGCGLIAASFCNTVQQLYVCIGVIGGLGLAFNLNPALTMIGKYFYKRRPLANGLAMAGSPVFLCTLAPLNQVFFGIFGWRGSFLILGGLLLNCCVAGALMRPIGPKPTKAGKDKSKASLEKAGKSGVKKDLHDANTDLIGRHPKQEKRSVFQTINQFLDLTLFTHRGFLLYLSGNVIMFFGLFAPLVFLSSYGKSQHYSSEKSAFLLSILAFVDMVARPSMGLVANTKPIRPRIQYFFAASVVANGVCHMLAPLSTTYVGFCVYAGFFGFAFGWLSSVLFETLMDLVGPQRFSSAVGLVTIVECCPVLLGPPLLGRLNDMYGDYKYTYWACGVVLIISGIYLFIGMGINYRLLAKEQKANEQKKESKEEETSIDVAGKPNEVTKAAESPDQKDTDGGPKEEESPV
Protocol: Inhibition of bromopyruvate toxicity. Since MCT1 is the sole transporter necessary for the in vitro efficacy of the anti-cancer toxin bromopyruvate (Reference 66), a second cell-based functional assay was developed to measure the in vitro killing of cells using this toxin at a concentration of 150 μM.
HEK293T cells are pre-treated with anti-MCT1 antibody or small molecular MCT1 inhibitor at 37° C. for 1 hour. Cells are then incubated with a cytotoxic reagent 3-bromopyruvate (3-BrPy) at concentrations that rand from 25 to 500 μM for 2 to 6 hours. ATP from dying cells will be quantified using a commercial viability kit (ATPlite, PerkinElmer) in a 96-well plate and viability measured using luminescence. Reduction of ATP production indicates functionality of the antibody. A positive control antibody is the mouse or chimeric antibody before humanization. A negative control cell line is MCT1/CD147 double knockout 293T cells. Using this assay functional, i.e., antagonistic anti-MCT1 antibodies may be identified.

MCT1 on T cells = target: T2, MCT1 on T cells (Homo sapiens, UniProt P53985); assay: staining of naive and activated T cells; assay type: binding
T2 construct: endogenous in cells
T2 sequence (P53985 1-500): T1 sequence (P53985 1-500)
Description: The only staining in FIG. 13A corresponds to nucleus staining, confirming the presence of the naïve T cells.
MCT1 Ab1 binding to activated T cells. […] This binding confirms the expression data presented in FIG. 2 and confirms the prediction based on mRNA analysis.

rabbit MCT1 = assay: flow cytometry binding to PBMCs, rabbit
Description: (§1) FIG. 12A-D show the cross-reactivity of MCT1 Ab1 as assessed via flow cytometry measurements of binding to MCT1 on the surface of different species' PBMCs.
(§2) Binding affinity and MCT1 cross-reactivity. […] MCT1 Ab1 is also highly cross-reactive with cynomolgus (cyno) and rabbit MCT1, but not with rodent MCT1 (FIG. 12A-D).

[1] = test system: human RBC lactate transport; assay: FLIPR lactate transport in purified human RBCs; assay type: cell-based; settings: 10 mM lactate
Protocol: MCT1 Ab1 and AZ3965 were used to inhibit MCT1 lactate transport in purified human RBCs using FLIPR based transport assays (REF. 1, 2) in the presence of 10 mM lactate. The levels of lactate transport were compared to a no lactate control condition and a no inhibitor condition in the presence of lactate.

[2] = target: T3, MCT1 transport of lactate (Homo sapiens, UniProt P53985); assay: lactate FLIPR assay; assay type: cell-based; settings: activated T cells; FLIPR Tetra, BCECF; read-out: Kd for block of lactate transport
T3 construct: endogenous in cells
T3 sequence (P53985 1-500): T1 sequence (P53985 1-500)
Description: Effects on lactate transport.
Inhibition of lactate transport.

[3] = repeated dosing safety in cynomolgus monkeys; assay type: in vivo, cynomolgus monkey
Description: In order to further corroborate the safety and efficacy of anti-MCT1 antibodies for human therapy we administered dosages of 50 mpk of anti-human MCT1 antibodies to cynomolgus monkeys. As disclosed in this example and corroborated by the figure referenced herein no toxicity was observed after 30 days.
As shown in FIG. 23 cynomolgus red blood cells (RBCs) express high levels of MCT1. Based thereon we tested the effects of antagonistic anti-MCT1 antibodies in cyno monkeys and in particular looked at any effects on RBCs after anti-MCT1 antibody dosing. Also, we determined whether cynos could tolerate a therapeutic effective dosage of the antibody.

human T cells = assay: metabolomics of treated T cells; assay type: cell-based; settings: preliminary
[4] = test system: allogeneic activation / T cell proliferation; assay: human mixed lymphocyte reaction (MLR); assay type: cell-based
Description: Human mixed lymphocyte reaction (MLR).
(§3) Inhibition of T cell proliferation, inflammatory cytokine production, and allogeneic activation. […] An anti-MCT1 antibody or antibody fragment of the invention may also be tested for its ability to inhibit the production of inflammatory cytokines, relative to controls, in stimulated T cells on day 3 post-stimulation. MCT1 Ab1As with CD3/CD28 activation, MCT1 Ab1 inhibited allogeneic activation by 50-60% in a human mixed lymphocyte reaction (see, e.g., FIG. 17).

[5] = target: T4, MCT1 on the surface of human PBMCs (Homo sapiens, UniProt P53985); assay: flow cytometry binding to PBMCs, human
T4 construct: endogenous in cells; host or cells: human PBMCs (unstimulated and stimulated)
T4 sequence (P53985 1-500): T1 sequence (P53985 1-500)
Description: as §1, §2

xeno-GVHD = assay: xeno-GvHD model with anti-MCT1 antibodies (human PBMC into NSG mice); assay type: in vivo, mouse
Protocol: In this model of GvHD animals male NSG mice are treated with sub-lethal irradiation (250 rad), and afterward these mice receive 2.5×10^6 of fresh human PBMC (day 0). First dose of anti-human MCT1 is combined with cells and injected i.v. The follow up treatment schedule is weekly (day 7, 14 and 21, IP).
For re-challenge experiments previously treated with anti-MCT1 (days 0, 7, 14, 21) NSG mice receive a second dose of 2.5×10^6 of previously frozen human PBMC of the same donor (day 42). Survival and weight loss of these mice is monitored with no additional antibody treatments and compared to a new cohort of NSG mice receiving same donor PBMCs.
100 ul of total blood is used for analysis: blood was stained using a Stain-1 wash protocol to allow absolute cell count with Ab panel below followed by FACS lysis buffer 1× (BD Bioscience, #349202); whole blood was incubated with a 10× antibody (shown below) and after 30 min, the blood was lysed in a large volume of 1× lysis buffer (at least 6 times) following manufacturer instructions; or blood was first lysed with ACK (10 min), washed in PBS and stained with antibody mix, exactly as described in the table below.

cynomolgus MCT1 = assay: flow cytometry binding to PBMCs, cynomolgus
Description: as §1, §2

rat MCT1 = target: T5, rat MCT1 (Rattus norvegicus, UniProt P53987); assay: flow cytometry binding to PBMCs, rat
T5 construct: endogenous in cells; host or cells: rat PBMCs
T5 sequence (P53987 1-494): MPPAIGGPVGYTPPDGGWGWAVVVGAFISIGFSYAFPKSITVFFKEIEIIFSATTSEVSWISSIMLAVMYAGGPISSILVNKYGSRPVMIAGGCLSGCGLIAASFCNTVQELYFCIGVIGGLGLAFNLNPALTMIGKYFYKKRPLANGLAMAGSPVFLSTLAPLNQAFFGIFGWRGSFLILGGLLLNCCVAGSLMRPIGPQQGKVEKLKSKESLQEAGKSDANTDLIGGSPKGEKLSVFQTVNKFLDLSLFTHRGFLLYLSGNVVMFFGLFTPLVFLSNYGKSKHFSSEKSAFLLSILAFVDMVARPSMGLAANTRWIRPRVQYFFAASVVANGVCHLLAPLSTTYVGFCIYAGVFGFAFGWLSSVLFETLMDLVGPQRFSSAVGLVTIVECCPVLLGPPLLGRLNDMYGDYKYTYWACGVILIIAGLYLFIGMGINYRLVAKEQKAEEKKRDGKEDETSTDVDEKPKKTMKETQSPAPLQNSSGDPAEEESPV
Description: as §1, §2

PK in cynos = assay type: in vivo, cynomolgus monkey; settings: preliminary PK data
T cell proliferation = T cell proliferation assay (CD3/CD28 stimulated); assay type: cell-based, human; settings: CD3/CD28 stimulated cultures; read-out: EC50 inhibition of T cell proliferation
Protocol: MCT1, MCT2, MCT4, and BSG (CD147) expression were measured in unstimulated and stimulated leukocytes from two different donors. For the “stimulated” condition, cells were CD3/CD28 activated for 3 days. Stimulated cells were tested for inhibition of proliferation by AZ3965.
Human T cell proliferation.
as §3

CD4+ and CD8+ T cells = assay: proliferation of CD4+ and CD8+ T cells; assay type: cell-based; settings: different antibody concentrations

Molecule: IL-15: Recombinant Human IL-15 (carrier-free), Biolegend 570304
- ex vivo Tr1 survival (Tr1 cells): increased ex vivo Tr1 survival in a dose-dependent manner

B1: MCT1 Ab1: rat anti-human MCT1 monoclonal antibody (rat/human chimera); VH/VL SEQ ID NO: 2/3 (antibody, V domains shown)
VH: QVQLKATGPGLVQPTQTLSITCTVSGFSLTNYHLQWVRQTPGKGLEWMGFIRSSGNTEYNSEFKSRLSISRDTSKNQVFLKMNSLKTDDTGVYYCARNSWYHGTYYSPGYYVMDAWGQGASVTVSS
VL: NIHLTQSPSLLSASVGDRVTLSCKGSQNINNYLAWFQQKFGETPKLLIYNRHNLQTGIPSRFSGSGSGTDYTLTINSLQPEDVATYFCYQYSDGYTFGAGTKLELK
modifications: MCT1 Ab1 (INX310) VH; MCT1 Ab1 (INX310) VL
- Kd (MCT1; bromopyruvate 150 μM, ATPlite, read-out: Kd for inhibition of bromopyruvate toxicity (protection from cell death)): 1.2 nM
- staining of activated T cells (MCT1 on T cells; CD3/CD28 activated cells, day 3): stains the surface of CD3/CD28 activated cells on day 3
- staining of naive T cells (MCT1 on T cells; naïve cells): does not stain naïve cells
- binding to MCT1 on PBMCs (rabbit MCT1): binds to rabbit MCT1
- lactate transport in human RBCs [1]: unaffected
- Kd [2]: 7.6 nM
- histological findings (heart, muscle, testis and eye, H & E) ([3]; 4 weekly doses at 50 mpk): no adverse histological findings
- in-life toxicity ([3]; 30 days, 4 weekly doses at 50 mpk): no significant in-life toxicity
- RBC mass after dosing ([3]; cynos, 50 mpk): initial reduction of RBC mass after dosing this resolves after a short time
- tolerability of repeated dosing ([3]; cynos, 50 mpk): tolerate repeated dosing
- metabolomics findings in treated T cells (human T cells): improved generation of ATP and NADH, along with increased oxidative metabolism and viability
- inhibition of allogeneic activation [4]: 50-60%
- binding to MCT1 on PBMCs [5]: binds to MCT1 on the surface of human PBMCs
- number of CD3+, CD4+ and CD8+ effector T cells (xeno-GVHD; compared to NSG mice treated with control antibody): significant decrease in the number of CD3^+, CD4^+ and CD8^+ effector T cells
- Tr1 cells (xeno-GVHD; compared to control antibody): increases in Tr1 cells
- MABEL in xeno-GVHD (xeno-GVHD; mouse, in vivo): ~1 mpk
- survival, long-term protection and tolerance (xeno-GVHD; re-challenge at day 42 with PBMC of the same donor): increased survival, long-term protection and tolerance induction
- binding to MCT1 on PBMCs (cynomolgus MCT1): binds to cynomolgus MCT1
- binding to MCT1 on PBMCs (rat MCT1): does not bind to rat MCT1
- dose rate at which the RBC sink is saturated (PK in cynos): ≥ 5 mpk
- EC50 (T cell proliferation): 1.3 nM
- proliferation of CD4+ and CD8+ T cells (CD4+ and CD8+ T cells): inhibited the proliferation of CD4^+ and CD8^+ T cells

B2: LM183: chicken anti-human MCT1 antibody; HC/LC SEQ ID NO: 164/169 (antibody)
heavy: AVTLDESGGGLQTPGGTLSLVCKASGFDFSNYEMLWVRQAPGKGLEYVAGIGDSASYSAYGVAVKGRATISRDNGQSTLRLQLNGLRAEDTGTYYCTKASEGSYWYYEAGGIDTWGHGTEVIVSS
light: ALTQPSSVSANLGGTVKITCSGGGGSYGWYQQKSPGSAPVTVIYDNDKRPSDIPSRFSGSKSGSTATLTITGVRAEDEAVYYCGSAGNSGAFGAGTTLTVL
modifications: HC Protein; LC Protein
- block of human MCT1 function (MCT1): block human MCT1 function

B3: LM186: chicken anti-human MCT1 antibody; HC/LC SEQ ID NO: 184/189 (antibody)
heavy: AVTLDESGGGLQTPGGGLSLVCKASGFSFSSRGMFWVRQAPGKGLEYVAGIDNDGGYPNYGSAVKGRATISRDNRQSTVRLQLNNLRADDTGTYYCAKGAYGGGWYAASSIDAWGHGTEVIVSS
light: ALTQPSSVSANPGEAVKITCSGGVGQWYGWFQQKAPGSAPVTVIHDNTNRPSDIPSRFSGSKSGSTGTLTITGVQAEDEAVYFCANTYSDGNDAPFGAGTTLTVL
modifications: HC Protein; LC Protein
- block of human MCT1 function (MCT1): block human MCT1 function

B4: IL-7: Recombinant Human IL-7 (carrier-free), Biolegend 581904 (protein, UniProt P13232 26-177, looked up)
Interleukin-7: DCDIEGKDGKQYESVLMVSIDQLLDSMKEIGSNCLNNEFNFFKRHICDANKEGMFLFRAARKLRQFLKMNSTGDFDLHLLKVSEGTTILLNCTGQVKGRKPAALGEAQPTKSLEENKSLKEQKKLNDLCFLKRLLQEIKTCWNKILMGTKEH
- ex vivo Tr1 survival (Tr1 cells): increased ex vivo Tr1 survival in a dose-dependent manner
